Measurements taken from paper PMC9894195.

How the values were obtained:
[1] = biological target: full-length human CD4 with the unstructured C-terminal tail replaced by a (Gly-Ser)n linker, mCherry2-tagged (human) (UniProt P01730); test: scanning fluorescence cross-correlation spectroscopy (sFCCS); live HEK293T cells on glass coverslips coexpressing mCherry2- and mEGFP-tagged proteins, one coreceptor; line scans at the basal cell surface; cross-correlation quotient q normalised to the tandem control (100%) and Lck^CS/Lck^CS (0%)
[2] = biological target: full-length human CD4 with the amphipathic α-helix replaced by a (Gly-Ser)n linker, mCherry2-tagged (human) (UniProt P01730); test: as above
[3] = biological target: full-length human CD4 with both the basic-rich region and the amphipathic α-helix replaced by (Gly-Ser)n linkers, mCherry2-tagged (human) (UniProt P01730); test: as above
[4] = biological target: full-length human Lck-mEGFP (HEK293T) (UniProt P06239); test: sFCCS (line-scan fluorescence cross-correlation spectroscopy) in live cells; details: HEK293T cells coexpressing mCherry2-tagged CD4 construct with wild-type Lck-mEGFP; read off a plot

Substance	decrease in CD4/Lck occupancy [1] [%]	decrease in CD4/Lck occupancy [2] [%]	decrease in CD4/Lck occupancy [3] [%]	other: normalized cross-correlation quotient q (occupancy) [4] [%]
full-length human Lck-mEGFP (HEK293T) (from UniProt P06239 1-509) (enzyme)	14	27	28	
full-length human CD4-mCherry2 (HEK293T) (from UniProt P01730) CQC>SQS (both Zn2+ clasp Cys to Ser; no residue numbers printed)				1
